# According to patent US6509445 (NISSIN FOOD PRODUCTS, dated 2003):
# B1: chimeric protein ATFHI-ML (other)
# chain: MSNELHQVPSNCDCLNGGTCVSNKYFSNIHWCNCPKKFGGQHCEIDKSKTCYEGNGHFYRGKASTDTMGRPCLPWNSATVLQQTYHAHRSDALQLGLGKHNYCRNPDNRRRPWCYVQVGLKPLVQECMVHDCADGKKPSSPPEELKFQGTVAACNLPIVRGPCRAFIQLWAFDAVKGKCVLFPYGGCQGNGNKFYSEKECREYCGVPG
# B2: chimeric protein ATFHI-CL (other)
# chain: MSNELHQVPSNCDCLNGGTCVSNKYFSNIHWCNCPKKFGGQHCEIDKSKTCYEGNGHFYRGKASTDTMGRPCLPWNSATVLQQTYHAHRSDALQLGLGKHNYCRNPDNRRRPWCYVQVGLKPLVQECMVHDCADGTVAACNLPIVRGPCRAFIQLWAFDAVKGKCVLFPYGGCQGNGNKFYSEKECREYCGVPGDGDEELL
# B3: chimeric protein ATFHI (other)
# chain: MSNELHQVPSNCDCLNGGTCVSNKYFSNIHWCNCPKKFGGQHCEIDKSKTCYEGNGHFYRGKASTDTMGRPCLPWNSATVLQQTYHAHRSDALQLGLGKHNYCRNPDNRRRPWCYVQVGLKPLVQECMVHDCADGTVAACNLPIVRGPCRAFIQLWAFDAVKGKCVLFPYGGCQGNGNKFYSEKECREYCGVPG
# Molecular target: urokinase receptor (uPAR) (human, UniProt Q03405 23-305)
# Sequence (Q03405 23-305): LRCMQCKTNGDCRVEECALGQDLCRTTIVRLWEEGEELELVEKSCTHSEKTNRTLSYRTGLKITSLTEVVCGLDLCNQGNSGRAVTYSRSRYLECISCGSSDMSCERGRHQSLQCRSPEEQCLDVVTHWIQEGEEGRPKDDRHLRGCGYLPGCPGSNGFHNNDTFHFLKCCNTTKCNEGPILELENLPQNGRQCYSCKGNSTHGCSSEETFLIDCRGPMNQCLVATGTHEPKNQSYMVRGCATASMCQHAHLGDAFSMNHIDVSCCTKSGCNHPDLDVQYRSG
# Experiment: cell-based or functional assay
Binder,"Invasion inhibitory effect ID50 (nM), A375 cells","Invasion inhibitory effect ID50 (nM), DU-145 cells","Invasion inhibitory effect ID50 (nM), GE0 cells","Invasion inhibitory effect ID50 (nM), H0C-I cells","Invasion inhibitory effect ID50 (nM), MDA-MB-435 cells","Invasion inhibitory effect ID50 (nM), PC-3 cells","Invasion inhibitory effect ID50 (nM), SMT-ccl cells"
B1,120 nM,2.9 nM,20 nM,50 nM,5.6 nM,50 nM,10 nM
B2,100 nM,5 nM,200 nM,20 nM,20 nM,20 nM,1 nM
B3,50 nM,0.5 nM,110 nM,10 nM,3.5 nM,20 nM,1.2 nM
